Assay results from the DeepSol protein solubility set.

assay: soluble on expression in E. coli; label from the status in PepcDB or PDB records

| Sequence | soluble on expression in E. coli |
| --- | --- |
| MARNAEKAMTALARWRRMKEEEERGPIARRPHDVKDCRNLSDAERFRREIVRDASKKITAIQNPGLGEFKLRDLNDEVNRLIKLKHAWEQRIRELGGTDYRKYAQKELDAIGRETGNSRGYKYFGAAKDLPGVRELFEKSTEGEEQRRHRADLLRNIDAHYFGYLDDEDGRLIPLEKLIEEKNIERINKEFAEKQAQKQQTASDAAPENIYKVEEDDDDDLETQESTVIGEDGRPMTIRHVLLPTQQDIEEMLLEQKKQELMAKYLD | not soluble |
| MARPLVPSSQKALLLELKGLQEEPVEGFRVTLVDEGDLYNWEVAIFGPPNTYYEGGYFKARLKFPIDYPYSPPAFRFLTKMWHPNIYETGDVCISILHPPVDDPQSGELPSERWNPTQNVRTILLSVISLLNEPNTFSPANVDASVMYRKWKESKGKDREYTDIIRKQVLGTKVDAERDGVKVPTTLAEYCVKTKAPAPDEGSDLFYDDYYEDGEVEEEADSCFGDDEDDSGTEESLEHHHHHH | not soluble |
| MARQTMNPSIRYLIGVDGGGTGTRIRLHASDGTPLAMAEGGASALSQGIAKSWQAVLSTLEAAFQQAGLPAAPASACAIGLGLSGVHNRQWAGEFESQAPGFARLSLATDGYTTLLGAHGGQPGIIVALGTGSIGEALYPDGSHREAGGWGYPSGDEASGAWLGQRAAQLTQMALDGRHSHSPLTRAVLDFVGGDWQAMMAWNGRATPAQFARLAPLVLSAARVDPEADALLRQAGEDAWAIARALDPQDELPVALCGGLGQALRDWLPPGFRQRLVAPQGDSAQGALLLLQRPSTRLEHHHHHH | soluble |
| MARSLLLPLQILLLSLALETAGEEAQGDKIIDGAPCARGSHPWQVALLSGNQLHCGGVLVNERWVLTAAHCKMNEYTVHLGSDTLGDRRAQRIKASKSFRHPGYSTQTHVNDLMLVKLNSQARLSSMVKKVRLPSRCEPPGTTCTVSGWGTTTSPDVTFPSDLMCVDVKLISPQDCTKVYKDLLENSMLCAGIPDSKKNACNGDSGGPLVCRGTLQGLVSWGTFPCGQPNDPGVYTQVCKFTKWINDTMKKHR | soluble |
| MARSRRDKNVSLTKVKKKTKDTKNNLVNEVRASVDQYKNLFIFTIANMRSTRFIAIRQKYKENSRFFFGKNNVISIALGKQKSDEYANQLHKASAILKGQCGLMFTNMSKKEVEAEFSEASEEDYARVGDVATETVVLPEGPISQFAFSMEPQLRKLGLPTKLDKGVITLYQQFEVCKEGEPLTVEQAKILKHFEVKMSQFRLIFKAHWNKKDGFKELDA | not soluble |
| MARTIPVLEIFGPTIQGEGMVIGQKTMFVRTAGCDYRCRWCDSAFTWDGSAKDEIEQLTADEIWRRLEAIGGRRFRHVTISGGNPLLIAALGELIALLHEKGMRVAVETQGSRWQDWLLDIDDVTLSPKPPSSGMDTDWSALDQIIERLQADQSRVRRISLKVVVFDDADLAYAKEVHCRYPGVPFYLQTGNADVADSDVDALRAKLLSRLEWLVEQAADSEELADVHILPQLHTLLWGNKRGV | not soluble |
| MASANNQNKFLDPRERGNILNYLKVCLLLARAVRRMHAAGLCHSDLSYKNVLIDPEQGHACIIDVDGLVVPGKFPPDVVGTPDFIAPEVVKTSHLLKEDPQRILPNITTDRHALSVLIYMYLFYRHPLRGGKIHDMDDEVRDESLAMGERALFIEHPTDRSNAVKLNQVKPSSLPWADPQKVPYTIMGPYLTQLFEKAFIDGLHDPSKRPTADEWETALVKTVDLIQPCQNTACEQKWYVFSGKTKPVCPYCLEHHHHHH | soluble |
| MASANSVIEGDLFKQKGASTFFNEGDINSSEGTIKHIYGLIIGTSNVSSSGTFATVNLTAGNKTGMTEFSLSNVLISDINSKSVPYTVTNATVLIDTAPVIDPICCPKSVDEKSKLAFKISAKDADGDRLTLSASGLPEGASFNRTSGAFAWTPAVGQTGVYTIAFKVSDGYLTDSENVTVTVNKLNNPPVIDFFEPINGSSFSEGERIGISVNATDAEKQALNYSIKIDGVMYSSDPAYIWETDYSSSGNHTIEVSVSDGIDEAKMQHSIYISECHPRYDVNEDGVVNILDITNVSREYETTVSKPYPRYDTNQDGEINILDLTLVGHHFGEKVELEHHHHHH | not soluble |
| MASASRLPPLPALRDFIHMYRLRAKKILSQNYLMDMNITRKIAKHAKVIEKDWVIEIGPGPGGITRAILEAGASRLDVVEIDNRFIPPLQHLAEAADSRMFIHHQDALRTEIGDIWKNETARPESVDWHDSNLPAMHVIGNLPFNIASPLIIKYLRDMSYRRGVWQYGRVPLTLTFQLEVAKRLCSPIACDTRSRISIMSQYVAEPKMVFQISGSCFVPRPQVDVGVVRFVPRKTPLVNTSFEVLEKVCRQVFHYRQKYVTKGLKTLYPEELEDELSDDLLKKCRIDPTTTSIRLGIEQFADLAEGYNEQCIRYPGLFLYDYTNKLHNLEDLSKEPNALPPPVPIFAPAPTIDSADNTWSLKNFNCS | not soluble |
| MASAVGEKMLDDFEGVLNWGSYSGEGAKVSTKIVSGKTGNGMEVSYTGTTDGYWGTVYSLPDGDWSKWLKISFDIKSVDGSANEIRFMIAEKSINGVGDGEHWVYSITPDSSWKTIEIPFSSFRRRLDYQPPGQDMSGTLDLDNIDSIHFMYANNKSGKFVVDNIKLIGALEHHHHHH | soluble |
| MASGAGGVGGGGGGKIRTRRCHQGPIKPYQQGRQQHQGILSRVTESVKNIVPGWLQRYFNKNEDVCSCSTDTSEVPRWPENKEDHLVYADEESSNITDGRITPEPAVSNTEEPSTTSTASNYPDVLTRPSLHRSHLNFSMLESPALHCQPSTSSAFPIGSSGFSLVKEIKDSTSQHDDDNISTTSGFSSRASDKDITVSKNTSLPPLWSPEAERSHSLSQHTATSSKKPAFNLSAFGTLSPSLGNSSVLKTSQLGDSPFYPGKTTYGGAAAAVRQSKLRNTPYQAPVRRQMKAKQLSAQSYGVTSSTARRILQSLEKMSSPLADAKRIPSIVSSPLNSVDSQYPPVQRLMTPKPVSIATNRSVYFKPSLTPSGEFRKTNQRIDKKCSTGYEKNMTPGQNREQRESGFSYPNFSLPAANGLSSGVGGGGGKMRRERTRFVASKPLEEEEMEVPVLPKISLPITSSSLPTFNFSSPEITTSSPSPINSSQALTNKVQMTSPSSTGSPMFKFSSPIVKSTEANVLPPSSIGFTFSVPVAKTAELSGSSSTLEPIISSSAHHVTTVNSTNCKKTPPEDCEGPFRPAEILKEGSVLDILKSPGFASPKIDSVAAQPTATSPVVYTRPAISSFSSSGIGFGESLKAGSSWQCDTCLLQNKVTDNKCIACQAAKLSPRDTAKQTGIETPNKSGKTTLSASGTGFGDKFKPVIGTWDCDTCLVQNKPEAIKCVACETPKPGTCVKRALTLTVVSESAETMTASSSSCTVTTGTLGFGDKFKRPIGSWECSVCCVSNNAEDNKCVSCMSEKPGSSVPTSSSSTVPVSLPSGGSLGLEKFKKPEGSWDCELCLVQNKADSTKCLACESAKPGTKSGFKGFDTSSSSSNSAASSSFKFGVSSSSSGPSQTLTSTGNFKFGDQGGFKIGVSSDSGSINPMSEGFKFSKPIGDFKFGVSSESKPEEVKKDSKNDNFKFGLSSGLSNPVSLTPFQFGVSNLGQEEKKEELPKSSSAGFSFGTGVINSTPAPANTIVTSENKSSFNLGTIETKSASVAPFTCKTSEAKKEEMPATKGGFSFGNVEPASLPSASVFVLGRTEEKQQEPVTSTSLVFGKKADNEEPKCQPVFSFGNSEQTKDENSSKSTFSFSMTKPSEKESEQPAKATFAFGAQTSTTADQGAAKPVFSFLNNSSSSSSTPATSAGGGIFGSSTSSSNPPVATFVFGQSSNPVSSSAFGNTAESSTSQSLLFSQDSKLATTSSTGTAVTPFVFGPGASSNNTTTSGFGFGATTTSSSAGSSFVFGTGPSAPSASPAFGANQTPTFGQSQGASQPNPPGFGSISSSTALFPTGSQPAPPTFGTVSSSSQPPVFGQQPSQSAFGSGTTPNSSSAFQFGSSTTNFNFTNNSPSGVFTFGANSSTPAASAQPSGSGGFPFNQSPAAFTVGSNGKNVFSSSGTSFSGRKIKTAVRRRK | soluble |
| MASGKRKGLSFDDKKTRLLELFNETCDFYTLKELEKIAPKLKGIITQSVKDVLQSLVDDDLVNSDKCGVQTIYWCLPSEAVAKRQRRLDALQQQLAEKRQKLTALQRQLVQVQAGREDSVERTAVLERLAACEAAWRERQRTLESYLECDPDVLAQRETETKTLIEQANRWTDNLYVIRSYVQRNLGVDLDLFDQQFELKPALQYLE | not soluble |
| MASKGAARVRKKEIVKVVHGALLRTNIKAQMASAAPPLGPQLGQRGLNVANFCKEFNKETGHFKQGVPLPTRITVKPDRTYDLEICTPTTTWLLKQAAGIGRGKASKDEIVGKLTVKHLYEIAKIKSRDKALQHVPLEQICRMLIKTCRTLGIDVQYHDLDPVELKEFLVARKEKVDAQLKDLADKKAAKMLRTT | not soluble |
| MASKYAVKLQTDFDNPKWIKRHKFMFDYLDINGNGQITLDEIVSKASDDICKNLGATPAQTQRHQDCVEAFFRGCGLEYGKETKFPEFLEGWKNLANADLAKWARNEPTLIREWGDAVFDIFDKDGSGTITLDEWKAYGRISGISPSEEDCEKTFQHCDLDNSGELDVDEMTRQHLGFWYTLDPEADGLYGNGVP | soluble |
| MASLPILTVLEQSQVSPPPDTLGDKSLQLTFFDFFWLRSPPINNLFFYELPITRSQFTETVVPNIKHSLSITLKHFYPFVGKLVVYPAPTKKPEICYVEGDSVAVTFAECNLDLNELTGNHPRNCDKFYDLVPILGESTRLSDCIKIPLFSVQVTLFPNQGIAIGITNHHCLGDASTRFCFLKAWTSIARSGNNDESFLANGTRPLYDRIIKYPMLDEAYLKRAKVESFNEDYVTQSLAGPSDKLRATFILTRAVINQLKDRVLAQLPTLEYVSSFTVACAYIWSCIAKSRNDKLQLFGFPIDRRARMKPPIPTAYFGNCVGGCAAIAKTNLLIGKEGFITAAKLIGENLHKTLTDYKDGVLKDDMESFNDLVSEGMPTTMTWVSGTPKLRFYDMDFGWGKPKKLETVSIDHNGAISINSCKESNEDLEIGVCISATQMEDFVHIFDDGLKAYL | soluble |
| MASLSRALRVAAAHPRQSPTRGMGPCNLSSAAGPTAEKSVPYQRTLKEGQGTSVVAQGPSRPLPSTANVVVIGGGSLGCQTLYHLAKLGMSGAVLLERERLTSGTTWHTAGLLWQLRPSDVEVELLAHTRRVVSRELEEETGLHTGWIQNGGLFIASNRQRLDEYKRLMSLGKAYGVESHVLSPAETKTLYPLMNVDDLYGTLYVPHDGTMDPAGTCTTLARAASARGAQVIENCPVTGIRVWTDDFGVRRVAGVETQHGSIQTPCVVNCAGVWASAVGRMAGVKVPLVAMHHAYVVTERIEGIQNMPNVRDHDASVYLRLQGDALSVGGYEANPIFWEEVSDKFAFGLFDLDWEVFTQHIEGAINRVPVLEKTGIKSTVCGPESFTPDHKPLMGEAPELRGFFLGCGFNSAGMMLGGGCGQELAHWIIHGRPEKDMHGYDIRRFHHSLTDHPRWIRERSHESYAKNYSVVFPHDEPLAGRNMRRDPLHEELLGQGCVFQERHGWERPGWFHPRGPAPVLEYDYYGAYGSRAHEDYAYRRLLADEYTFAFPPHHDTIKKECLACRGAAAVFDMSYFGKFYLVGLDARKAADWLFSADVSRPPGSTVYTCMLNHRGGTESDLTVSRLAPSHQASPLAPAFEGDGYYLAMGGAVAQHNWSHITTVLQDQKSQCQLIDSSEDLGMISIQGPASRAILQEVLDADLSNEAFPFSTHKLLRAAGHLVRAMRLSFVGELGWELHIPKASCVPVYRAVMAAGAKHGLINAGYRAIDSLSIEKGYRHWHADLRPDDSPLEAGLAFTCKLKSPVPFLGREALEQQRAAGLRRRLVCFTMEDKVPMFGLEAIWRNGQVVGHVRRADFGFAIDKTIAYGYIHDPSGGPVSLDFVKSGDYALERMGVTYGAQAHLKSPFDPNNKRVKGIY | not soluble |
| MASNEARYVLAEEVDFSSPEEVKNWWNSGTWQAEFGSPDIEWNGEVGNGALQLNVKLPGKSDWEEVRVARKFERLSECEILEYDIYIPNVEGLKGRLRPYAVLNPGWVKIGLDMNNANVESAEIITFGGKEYRRFHVRIEFDRTAGVKELHIGVVGDHLRYDGPIFIDNVRLYKRTGGM | soluble |
